T1: His-tagged mArfN37 (N-terminal 37 amino acids of mouse p19Arf with poly-His tag) (mouse)
T1 construct: Captured on the SPR chip by a covalently linked anti-His antibody; Tag placed first here; also called His-mArfN37; His-tagged mArf37
T1 chain: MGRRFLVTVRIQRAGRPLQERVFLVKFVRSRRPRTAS

B1: 260-274 (Hdm2 peptide) (peptide)
peptide: Ac-SLSEEGQELSDEDDE-NH2
notes: also called Hdm2 library peptide, residues 260-274
B2: 310-324 (Hdm2 peptide) (peptide)
peptide: Ac-EMNPPLPSHCNRCWA-NH2
modifications: cysteine pairing not given here
notes: also called Hdm2 library peptide, residues 310-324
B3: 330-344 (Hdm2 peptide) (peptide)
peptide: Ac-LPEDKGKDKGEISEK-NH2
notes: also called Hdm2 library peptide, residues 330-344
B4: 265-279 (Hdm2 peptide) (peptide)
peptide: Ac-GQELSDEDDEVYQVT-NH2
notes: also called Hdm2 library peptide, residues 265-279
B5: 270-284 (Hdm2 peptide) (peptide)
peptide: Ac-DEDDEVYQVTVYQAG-NH2
notes: also called Hdm2 library peptide, residues 270-284
B6: 325-339 (Hdm2 peptide) (peptide)
peptide: Ac-LRENWLPEDKGKDKG-NH2
notes: also called Hdm2 library peptide, residues 325-339
B7: 300-314 (Hdm2 peptide) (peptide)
peptide: Ac-ADYWKCTSCNEMNPP-NH2
modifications: cysteine pairing not given here
notes: also called Hdm2 library peptide, residues 300-314
B8: 335-349 (Hdm2 peptide) (peptide)
peptide: Ac-GKDKGEISEKAKLEN-NH2
notes: also called Hdm2 library peptide, residues 335-349
B9: 295-309 (Hdm2 peptide) (peptide)
peptide: Ac-PEISLADYWKCTSCN-NH2
modifications: cysteine pairing not given here
notes: also called Hdm2 library peptide, residues 295-309
B10: 245-259 (Hdm2 peptide) (peptide)
peptide: Ac-FSVEFEVESLDSEDY-NH2
notes: member of the group m17; also called H1 segment peptide
B11: 280-294 (Hdm2 peptide) (peptide)
peptide: Ac-VYQAGESDTDSFEED-NH2
notes: also called Hdm2 library peptide, residues 280-294
B12: 320-334 (Hdm2 peptide) (peptide)
peptide: Ac-NRCWALRENWLPEDK-NH2
notes: also called Hdm2 library peptide, residues 320-334
B13: 285-299 (Hdm2 peptide) (peptide)
peptide: Ac-ESDTDSFEEDPEISL-NH2
notes: also called Hdm2 library peptide, residues 285-299
B14: 230-244 (Hdm2 peptide) (peptide)
peptide: Ac-EHSGDWLDQDSVSDQ-NH2
notes: also called Hdm2 library peptide, residues 230-244
B15: 210-224 (Hdm2 peptide) (peptide)
peptide: Ac-SSSSESTGTPSNPDL-NH2
notes: also called Hdm2 library peptide, residues 210-224
B16: 215-229 (Hdm2 peptide) (peptide)
peptide: Ac-STGTPSNPDLDAGVS-NH2
notes: also called Hdm2 library peptide, residues 215-229
B17: 220-234 (Hdm2 peptide) (peptide)
peptide: Ac-SNPDLDAGVSEHSGD-NH2
notes: also called Hdm2 library peptide, residues 220-234
B18: 240-254 (Hdm2 peptide) (peptide)
peptide: Ac-SVSDQFSVEFEVESL-NH2
notes: member of the group m17; also called Hdm2 library peptide, residues 240-254; H1 segment peptide
B19: 235-249 (Hdm2 peptide) (peptide)
peptide: Ac-WLDQDSVSDQFSVEF-NH2
notes: as for B10
B20: 56-70 (human Arf peptide) (peptide)
peptide: Ac-GQQPLPRRPGHDDGQ-NH2
notes: also called human p14Arf library peptide, residues 56-70
B21: 71-85 (human Arf peptide) (peptide)
peptide: Ac-RPSGGAAAAPRRGAQ-NH2
notes: also called human p14Arf library peptide, residues 71-85
B22: 26-40 (human Arf peptide) (peptide)
peptide: Ac-HIPRLTGEWAAPGAP-NH2
notes: also called human p14Arf library peptide, residues 26-40
B23: 81-95 (human Arf peptide) (peptide)
peptide: Ac-RRGAQLRRPRHSHPT-NH2
notes: also called human p14Arf library peptide, residues 81-95
B24: 116-130 (human Arf peptide) (peptide)
peptide: Ac-GAAGRARCLGPSARG-NH2
notes: also called human p14Arf library peptide, residues 116-130
B25: 101-115 (human Arf peptide) (peptide)
peptide: Ac-PGGLPGHAGGAAPGR-NH2
notes: also called human p14Arf library peptide, residues 101-115
B26: 21-35 (human Arf peptide) (peptide)
peptide: Ac-RVFVVHIPRLTGEWA-NH2
notes: also called human p14Arf library peptide, residues 21-35
B27: 91-105 (human Arf peptide) (peptide)
peptide: Ac-HSHPTRARRCPGGLP-NH2
notes: also called human p14Arf library peptide, residues 91-105
B28: 31-45 (human Arf peptide) (peptide)
peptide: Ac-TGEWAAPGAPAAVAL-NH2
notes: also called human p14Arf library peptide, residues 31-45
B29: 106-120 (human Arf peptide) (peptide)
peptide: Ac-GHAGGAAPGRGAAGR-NH2
notes: also called human p14Arf library peptide, residues 106-120
B30: 66-80 (human Arf peptide) (peptide)
peptide: Ac-HDDGQRPSGGAAAAP-NH2
notes: also called human p14Arf library peptide, residues 66-80
B31: 76-90 (human Arf peptide) (peptide)
peptide: Ac-AAAAPRRGAQLRRPR-NH2
notes: also called human p14Arf library peptide, residues 76-90
B32: 96-110 (human Arf peptide) (peptide)
peptide: Ac-RARRCPGGLPGHAGG-NH2
notes: also called human p14Arf library peptide, residues 96-110
B33: human p14Arf library peptide, residues 11-25 (peptide)
peptide: Ac-IRRACGPPRVRVFVV-NH2
notes: also called third peptide of the human library
B34: 111-125 (human Arf peptide) (peptide)
peptide: Ac-AAPGRGAAGRARCLG-NH2
notes: also called human p14Arf library peptide, residues 111-125
B35: 51-65 (human Arf peptide) (peptide)
peptide: Ac-RSQRLGQQPLPRRPG-NH2
notes: also called human p14Arf library peptide, residues 51-65
B36: human p14Arf library peptide, residues 1-15 (peptide)
peptide: Ac-MVRRFLVTLRIRRAC-NH2
notes: also called first peptide of the human library
B37: 61-75 (human Arf peptide) (peptide)
peptide: Ac-PRRPGHDDGQRPSGG-NH2
notes: also called human p14Arf library peptide, residues 61-75
B38: 41-55 (human Arf peptide) (peptide)
peptide: Ac-AAVALVLMLLRSQRL-NH2
notes: also called human p14Arf library peptide, residues 41-55
B39: 46-60 (human Arf peptide) (peptide)
peptide: Ac-VLMLLRSQRLGQQPL-NH2
notes: also called human p14Arf library peptide, residues 46-60
B40: human p14Arf library peptide, residues 6-20 (peptide)
peptide: Ac-LVTLRIRRACGPPRV-NH2
notes: also called second peptide of the human library

Biological target: T1, His-tagged mArfN37 (N-terminal 37 amino …)
Assay: SPR, His-tagged mArfN37 captured by anti-His antibody, peptide injected, signal minus reference cell [c]
Procedure: (§1) Binding studies were performed using a Biacore 3000 surface plasmon resonance (SPR) instrument (Biacore, Inc.). A Tetra-His™ Antibody (Qiagen, Inc.; Cat. #34670) was covalently attached to a carboxymethylated gold surface (C-1 chip; Biacore, Inc.). The carboxymethyl groups on the surface were activated with N-ethyl-N′-(3-dimethylaminopropyl) carbodiimide (EDC) and N-hydroxysuccinimide (NHS) and the antibody was attached at pH 7.4 in 20 mM sodium phosphate buffer, 150 mM NaCl (PBS). Reactive sites remaining on the surface were blocked by reaction with ethanolamine. The His-tagged ligand was attached to the antibody by injecting a 5-10 μg/ml solution of the ligand in 10 mM HEPES, 150 mM NaCl, pH 7.4 (HBS-N buffer, Biacore) at a flow rate of 10 μL/min through the flow cell. A reference cell was prepared similarly except that no His-tagged ligand was added. Binding was measured by flowing the non-His-tagged analyte through the reference and ligand-containing flow cells in sequence. Prior to injection of ligands, the chip surfaces were equilibrated in HBS-N buffer. Changes in the SPR response due to solvent differences and the injection process were monitored by injection of HBS-N buffer alone. Regeneration of the chip surface to remove bound analyte and ligand was accomplished by two 100 μL injections of 10 mM glycine, pH 2.0 through both flow cells. Data reported is the difference in SPR signal between the flow cell containing analyte and the reference cell. Duplicate injections were made and the SPR response values reported are the average of these two injections.
A similar approach using short synthetic peptides and SPR was used to map the segments of Hdm2 that bind mArfN37 (FIG. 5c). […] The first of these as Arf-binding segment is termed “H1” and the second is termed segment “H2”.

binding result | Binder
no binding | B1
no binding | B2
no binding | B3
no binding | B4
binds | B5
no binding | B6
no binding | B7
binds | Ac-SFEEDPEISLADYWK-NH2 [Hdm2 peptide, residues 290-304 of SEQ ID NO:8]
no binding | B8
no binding | B9
no binding | Ac-LPSHCNRCWALRENW-NH2 (cysteine pairing not given here) [315-329 (Hdm2 peptide)]
binds | B10
no binding | B11
no binding | B12
no binding | B13
no binding | B14
no binding | B15
no binding | B16
no binding | B17
binds | B18
binds | Ac-EVESLDSEDYSLSEE-NH2 [250-264 (Hdm2 peptide)]
no binding | Ac-DSEDYSLSEEGQELS-NH2 [255-269 (Hdm2 peptide)]
binds | B19

biological target: T2, His-tagged Hdm2 210-304 (human, UniProt Q00987 210-304); assay: SPR, His-tagged Hdm2 210-304 captured by anti-His antibody, peptide injected 10 min, signal minus reference cell [b]
T2 construct: Captured on the C-1 chip by anti-His antibody for the Arf peptide library SPR; Tag placed first here
Procedure: as §1, with “Reactive” for “Binding studies were performed using a Biacore 3000 surface plasmon resonance (SPR) instrument (Biacore, Inc.). A Tetra-His™ Antibody (Qiagen, Inc.; Cat. #34670) was covalently attached to a carboxymethylated gold surface (C-1 chip; Biacore, Inc.). The carboxymethyl groups on the surface were activated with N-ethyl-N′-(3-dimethylaminopropyl) carbodiimide (EDC) and N-hydroxysuccinimide (NHS) and the antibody was attached at pH 7.4 in 20 mM sodium phosphate buffer, 150 mM NaCl (PBS). Reactive”
Two libraries of peptides 15 amino acids in length were synthesized based on the sequence of exon 1β of mouse p19^Arf and the entire sequence of human p14^Arf. The sequence for the first peptide in each library corresponded to the first 15 amino acids of the protein sequences. […] This approach yielded two libraries of overlapping peptides spanning mouse p19^Arf residues 1-64 and human p14^Arf residues 1-132. The ability of these peptides to bind Hdm2 fragments was determined using the surface plasmon resonance (SPR) technique with a Biacore 3000 instrument. […] Library peptides were allowed to flow over the Hdm2 surface, or over a control surface lacking an Hdm2 fragment.

T2 sequence (Q00987 210-304): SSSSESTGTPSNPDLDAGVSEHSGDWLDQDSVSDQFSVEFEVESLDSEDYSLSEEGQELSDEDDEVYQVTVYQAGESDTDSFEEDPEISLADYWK

binding result | Binder
no binding | B20
binds | Ac-LRRPRHSHPTRARRC-NH2 [human p14Arf library peptide, residues 86-100 (contains the NoLS RRPR)]
no binding | B21
no binding | B22
no binding | B23
no binding | B24
no binding | B25
no binding | B26
no binding | B27
no binding | B28
no binding | B29
no binding | B30
no binding | B31
no binding | B32
binds | B33
no binding | B34
no binding | B35
binds | B36
no binding | B37
no binding | B38
no binding | B39
binds | B40

— patent US20020045192A1 (ST JUDE CHILDREN S RESEARCH HOSPITAL, published 2002)
